Assay results: patent US20050059089A1 (priority 2003, published 2005)
No end group written: not given here.

How the values were obtained:
GPCR142 [1] = target: T1, GPCR142 (Homo sapiens, UniProt Q8TDU9, L329S); test: GTPγS binding assay, GPCR142 expressing cell membranes; assay type: biochemical; design: The complete coding region of human GPCR142 was PCR-amplified from human genomic DNA; expressed in transfected cells; CHO membranes (GTPγS); HEK293 co-transfected with Gα16 (Ca2+)
Protocol: The GPCR142 expression vector described above was transfected into CHO cells using Lipofectamine (Invitrogen) according to the manufacturer's instructions. Two days after transfection, the cells were harvested and the cell membranes were prepared by homogenizing the cells in cold 50 mM Tris-HCl, 5 mM EDTA, pH 7.5 followed by centrifugation at 4° C. 1000 g for 10 min. The supernatant was centrifuged at 4° C. 20,000 g for 30 min and the pellet was re-suspended in GTPγS binding buffer: 50 mM Tris-HCl, pH 7.4, 10 mM MgCl2, 1 mM EDTA, pH 8.0, and 100 mM NaCl using a polytron tissue homogenizer. Protease inhibitors were added to the buffer at concentrations of 1 mM PMSF, 10 μg/ml of pepstatin A, 10 μg/ml of leupeptin. Cell membranes and different concentrations of ligands were added to 96-well plates and incubated at room temperature for 20 min. ^35S-GTPγS (NEN) was then added to each well at a final concentration of […] in a final volume of 200 μL. The reactions were allowed to proceed at room temperature for 1 h, and then the mixtures were filtered though a 96-well GFC filter plate (Packard) and washed with cold washing buffer: 50 mM Tris-HCl, pH 7.4, 10 mM MgCl2. Fifty microliters of Microscint-40 (Packard) was added to each well and the plate was counted on a top counter (TopCount NTX, Packard).

GPCR142 [2] = target: T1, GPCR142; test: Inhibition of forskolin-stimulated cAMP (CRE-β-galactosidase) in SK-N-MC cells; assay type: cell-based; design: The complete coding region of human GPCR142 was PCR-amplified from human genomic DNA; expressed in transfected cells; HEK293 co-transfected with Gqi5 (Ca2+); conditions: SK-N-MC cells stably expressing GPCR142
Protocol: SK-N-MC cells stably expressing GPCR142 were established by transfection of GPCR142 expressing plasmids into SK-N-MC cells harboring a β-galactosidase gene under control of multiple cAMP responsive elements. The stable transfectants were selected by culturing the transfected cells under G418 selection (400 mg/L). The receptor expressing cells were seeded in 96-well plates at a cell density of 30,000 cells/well. After 24 h, cells were stimulated with forskolin or different peptides. Cells were cultured for an additional 6 h and the intracellular β-gal activity, which represents the intracellular cAMP accumulation, was measured as described by Liu et al. (2000), Mol. Pharmacol., 59, 420-426.

GPCR142 [3] = target: T1, GPCR142; test: Radioligand binding assay with 125I-relaxin3 (saturation and competition), COS-7 cell membranes; design: The complete coding region of human GPCR142 was PCR-amplified from human genomic DNA; expressed in transfected cells; conditions: competition binding, COS-7 membranes
Protocol: (§1) The binding mixtures were incubated at room temperature for 1 h and then were filtered through 96-well GFC plates (Packard) and washed with ice-cold washing buffer: 50 mM Tris-HCl, pH 7.4. Fifty microliters of Microscint-40 were added to each well and the plates were counted in a Topcounter NTX (Packard). The radioligand binding results were analyzed using GraphPad PRISM software.
The binding assays were performed at room temperature for an incubation time of one hour. The binding mixtures were then filtered through GFC filters pre-saturated with 0.3 polyethylenimine (Sigma) and washed with cold binding buffer. The bound radioligand was counted in a top counter (TopCount/NTX, Packard) with Microscint-40. The results were analyzed by Prism 3.0 software.

GPCR142 [4] = target: T1, GPCR142; test: Ca2+ mobilization assay (FLIPR), HEK293 cells co-expressing GPCR142 and Gα16; assay type: cell-based; design: The complete coding region of human GPCR142 was PCR-amplified from human genomic DNA; expressed in transfected cells; HEK293 co-transfected with Gα16 (Ca2+)
Protocol: Human embryonic kidney (HEK) 293 cells were transfected with GPCR135,.GPCR142 or co-transfected with Gqi5 (Conklin et al. (1993), Nature 363, 274-280) or Gα16 (Amatruda et al. (1991), Proc. Natl. Acad. Sci. U.S.A. 88, 5587-5591) expressing plasmids using LipofectAmine. Two days after transfection, cells were detached with PBS plus 10 mM EDTA. The detached cells were washed with DMEM-F12 medium (without phenol red, Invitrogen) and seeded in black poly-D lysine coated 96-well plates (BD Biosciences, San Jose, Calif.) at a cell density of 50,000 cell/well.

human GPCR142 [5] = target: T2, human GPCR142 (human, UniProt Q8TDU9 1-374); test: competition binding with ^125I-relaxin3, membranes of COS-7 cells expressing GPCR142
T2 construct: Expressed in COS-7, CHO, SK-N-MC or HEK293 cells
T2 sequence (Q8TDU9 whole entry L329S): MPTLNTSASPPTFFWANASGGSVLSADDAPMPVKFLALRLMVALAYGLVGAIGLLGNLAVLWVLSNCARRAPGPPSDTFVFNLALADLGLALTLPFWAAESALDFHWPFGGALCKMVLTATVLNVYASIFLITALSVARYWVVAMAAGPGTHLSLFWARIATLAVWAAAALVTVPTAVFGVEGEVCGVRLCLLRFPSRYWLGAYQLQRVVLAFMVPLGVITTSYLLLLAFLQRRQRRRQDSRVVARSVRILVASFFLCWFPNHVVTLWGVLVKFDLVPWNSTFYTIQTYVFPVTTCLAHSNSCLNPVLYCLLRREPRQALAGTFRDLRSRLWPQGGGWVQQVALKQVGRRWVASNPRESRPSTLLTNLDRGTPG
Protocol: as §1, with “(Packard).” for “(Packard). The radioligand binding results were analyzed using GraphPad PRISM software.”

human GPCR142 [6] = target: T2, human GPCR142; test: saturation radioligand binding, membranes of COS-7 cells transiently expressing GPCR142
Protocol: as §1, with “(Packard).” for “(Packard). The radioligand binding results were analyzed using GraphPad PRISM software.”

human GPCR142 [7] = target: T2, human GPCR142; test: cell-based or functional assay
human GPCR142 [8] = target: T2, human GPCR142; test: competition binding with ^125I-relaxin3, membranes of COS-7 cells transiently expressing GPCR142
Protocol: as §1, with “(Packard).” for “(Packard). The radioligand binding results were analyzed using GraphPad PRISM software.”

T1 sequence (Q8TDU9 whole entry L329S): as above

With `CC[C@H](C)[C@@H]1NC(=O)[C@H](Cc2ccccc2)NC(=O)[C@H](CCC(=O)O)NC(=O)[C@H](CCCNC(=N)N)NC(=O)CNC(=O)[C@@H](NC(=O)[C@H](CC(C)C)NC(=O)[C@H](CCCNC(=N)N)NC(=O)[C@@H](NC(=O)CNC(=O)[C@H](Cc2ccc(O)cc2)NC(=O)[C@@H]2CCCN2C(=O)[C@H](C)NC(=O)[C@H](C)NC(=O)[C@@H](N)CCCNC(=N)N)C(C)C)CSSC[C@@H](C(=O)NCC(=O)NCC(=O)N[C@@H](CO)C(=O)N[C@@H](CCCNC(=N)N)C(=O)N[C@@H](Cc2c[nH]c3ccccc23)C(=O)O)NC(=O)[C@H]([C@@H](C)O)NC(=O)[C@H](Cc2ccccc2)NC(=O)[C@H]([C@@H](C)CC)NC(=O)[C@H](C(C)C)NC(=O)[C@H](C)NC(=O)[C@H](CCCNC(=N)N)NC1=O` [relaxin3 B-chain, reference compound] the “stimulation of 35S-GTPγS binding (agonist activity)” value (GPCR142 [1]) was “stimulate”, the “inhibition of forskolin induced β-galactosidase expression” value (GPCR142 [2]) was “showed ligand activity, albeit with a significantly lower potency” and the “displacement of 125I-relaxin3 binding to GPCR142” value (GPCR142 [3]) was “displaced”.

For “INSL5: Human INSL5 (SEQ ID NO: 5), recombinantly expressed in COS-7 cells, relaxin/insulin superfamily peptide (KESVRLCGLEYIRTVIYICASSRWQDLQTLCCTDGCSMTDLSALC; ends and bridges not checked; cysteine pairing not given here; listed as Homo sapiens)”, the “stimulation of 35S-GTPγS binding (agonist activity)” value (GPCR142 [1]) was “stimulated GTPγS binding”, the “inhibition of forskolin induced β-galactosidase expression” value (GPCR142 [2]) was “dose-dependently inhibits” and the “displacement of 125I-relaxin3 binding to GPCR142” value (GPCR142 [3]) was “specifically displaced”. For the same molecule, the “stimulation of Ca2+ mobilization” value (GPCR142 [4]) was “stimulated Ca2+ mobilization”.

B1: Human INSL4 (ligand)
chain 1: AELRGCGPRFGKHLLSYCPMPEKTFTTTPGGWL
chain 2: SGRHRFDPFCCEVICDDGTSVKLCT
B1: no binding (human GPCR142 [5]).

B2: relaxin3 A-chain (peptide, UniProt Q8WXF3 119-142, looked up)
peptide: DVLAGLSSSCCKWGCSKSEISSLC
modifications: ends and bridges not checked; also: oxidized
notes: domain: A-chain; Bought peptide; also called oxidized relaxin-3 A-chain peptide
B2: no binding (human GPCR142 [5]).

B3: ^125I-relaxin3 (ligand)
chain 1: RAAPYGVRLCGREFIRAVIFTCGGSRW
chain 2: DVLAGLSSSCCKWGCSKSEISSLC
modifications: ends and bridges not checked; also: 125I label, residue not given here
notes: also called radioligand; tracer
B3 gave a Kd (human GPCR142 [6]) of 1.9 nM.

B4: relaxin3 B-chain (peptide, UniProt Q8WXF3 26-52, looked up)
peptide: RAAPYGVRLCGREFIRAVIFTCGGSRW
modifications: not fully specified (bridges); ends and bridges not checked; also: oxidized
notes: domain: B-chain; Bought peptide; also called oxidized relaxin-3 B-chain peptide
For B4, the “EC50, GTPγS binding assay” value (human GPCR142 [7]) was about 100 nM and the Ki (human GPCR142 [8]) was 85 nM.

B5: Porcine relaxin (ligand)
chain 1: QSTNDFIKACGRELVRLWVEICGSVSWGRTAL
chain 2: RMTLSEKCCQVGCIRKDIARLC
notes: The results paragraph prints only 'relaxin'
B5: no binding (human GPCR142 [5]).
